# Assay results from patent US20220259593A1, “CONTROL OF MAMMALIAN GENE DOSAGE USING CRISPR” (The Regents of the University of California, priority 2019, published 2022).
# Test system: K562 CRISPRi cells
# Assay: Constant region variant library pooled growth screen, K562
# Format: cell-based, human
# Details: sgRNA constant region variants
# Method in brief: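 Growth screens in K562 CRISPRi cells were harvested 4-8 days post-selection at >2000× library coverage. Each variant's phenotype was referenced to the unmodified constant region with the same targeting sequence.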
# [1] = relative to the original, un-modified constant region cr995 (= 1)
# [2] = activity relative to the original, un-modified constant region cr995
Molecule,Mean relative activity [1],Mean relative activity [2]
"cr632 (nucleic acid, listed as DNA, chemistry not fully specified) guide: GTTTAAGAGCTAAGCTGGAAACAGCATAGCAAGTTTAAATAAGGCTAGTCCGTTATCAACTTGCAGAAGTGGCACCGAGTCGGTGCT",1.008,
"cr144 (nucleic acid, listed as DNA, chemistry not fully specified) guide: GTTTAAGAGCTAAGCTGGAAACAGCATAGCAAGTTTAAATAAGGCTAGTCCGTTATCATGTAGAAATACAGGCACCGAGTCGGTGCT",1.007,
"cr348 (nucleic acid, listed as DNA, chemistry not fully specified) guide: GTTTAAGAGCTAAGCTGGAAGCAGCATAGCAAGTTTAAATAAGGCTAGTCCGTTATCAACTTGAAAAAGTGGCACCGAGTCGGTGCT",1.008,
"cr333 (nucleic acid, listed as DNA, chemistry not fully specified) guide: GTTTAAGAGCTAAGCTGGAAACAGCATAGCAAGTTTAAATAAGGCTAGTCCGTTATCAAGGTGAAAACCTGGCACCGAGTCGGTGCT",,1.072
"cr771 (nucleic acid, listed as DNA, chemistry not fully specified) guide: GTTTAAGAGCTAAGCTGGAAACAGCATAGCAAGTTTAAATAAGGCTAGTCCGTTATCAACTTGAGAAAGTGCCACCGAGTCGGTGGT",1.007,
"cr510 (nucleic acid, listed as DNA, chemistry not fully specified) guide: GTTTAAGAGCTAAGCTGGAAACAGCATAGCAAGTTTAAATAAGGCTAGTCCGTTATCATGTTGAAAAACAGGCACCGAGTCGGTGCT",1.007,
"cr139 (nucleic acid, listed as DNA, chemistry not fully specified) guide: GTTTAAGAGCTAAGCTGGAAACAGCATAGCAAGTTTAAATAAGGCTAGTCCGTTATCAACTTGAAAAAGTGGCAACGAGTCGTTGCT",1.006,
"cr606 (nucleic acid, listed as DNA, chemistry not fully specified) guide: GTTTAAGAGCTAAGCTGGAAACAGCATAGCAAGTTTAAATAAGGCTAGTCCGTTATCAAGTTGAAAAACTGGCCTCGAGTCGAGGCT",1.007,
"cr232 (nucleic acid, listed as DNA, chemistry not fully specified) guide: GTTTAAGAGCTAAGCTGGAAACAGCACAGCAAGTTTAAATAAGGCTAGTCCGTTATCAACTTGAAAAAGTGGCACCGAGTCGGTGCT",1.006,
"cr365 (nucleic acid, listed as DNA, chemistry not fully specified) guide: GTTTAAGAGCTAAGCTGGAAACAGCATAGCAAGTTTAAATAAGGCTAGTCCGTAATCAACTTGAAAAAGTGGCACCGAGTCGGTGCT",1.007,
"cr936 (nucleic acid, listed as DNA, chemistry not fully specified) guide: GTTTAAGAGCTAAGCTGGAAACAGCATAGCAAGTTTAAATAAGGCTAGTCCGTTATCAACTTGAAAAAGTGTCACCGAGTCGGTGAT",,1.072
"cr559 (nucleic acid, listed as DNA, chemistry not fully specified) guide: GTTTAAGAGCTAAGCTGGAAACAGCATAGCAAGTTTAAATAAGGCTAGTCCGTTATCAACTTGAAAAAGTGGTACCGAGTCGGTACT",1.007,
